Experimental data reported in EP4740967A1 (Shanghai Escugen Biotechnology Co., Ltd., dated 2026).

T1: human Claudin18.2 (human, UniProt P56856 1-261)
T1 sequence (looked up): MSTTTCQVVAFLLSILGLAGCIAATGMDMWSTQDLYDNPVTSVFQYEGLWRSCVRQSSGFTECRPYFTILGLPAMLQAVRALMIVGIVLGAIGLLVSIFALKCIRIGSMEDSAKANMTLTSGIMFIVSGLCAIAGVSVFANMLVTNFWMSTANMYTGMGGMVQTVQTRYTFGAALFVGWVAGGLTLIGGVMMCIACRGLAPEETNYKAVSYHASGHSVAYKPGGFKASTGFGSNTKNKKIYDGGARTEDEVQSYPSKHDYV

B1: 9D1-GGFG-Exatecan (antibody, human IgG1, kappa, V domains shown)
VH: QIQLVQSGAEVKKPGASVKISCKASGYSFTDYHMNWVRQAPGKGLEWIGNIDPYYGSPTYNHKFKGRVTLTVDTSTSTAYMELSSLRSEDTAVYYCANYGRGNSFPYWGQGTLVTVSS
VL: DIVMTQSPSSLAVSLGERATINCKSSQSLLNSGNQRNYLTWYQQKPGQPPKLLIYWASTRESGVPDRFSGSGSGTDFTLTISSLQAEDVAVYYCQNDYSFPFTFGQGTKLEIKR
modifications: MC-GGFG-Exatecan linker-drug on reduced interchain cysteines (Conjugation Method 1, DAR 8)
B2: 9D1-LD-72 (antibody, human IgG1, kappa, V domains shown)
VH: QIQLVQSGAEVKKPGASVKISCKASGYSFTDYHMNWVRQAPGKGLEWIGNIDPYYGSPTYNHKFKGRVTLTVDTSTSTAYMELSSLRSEDTAVYYCANYGRGNSFPYWGQGTLVTVSS
VL: DIVMTQSPSSLAVSLGERATINCKSSQSLLNSGNQRNYLTWYQQKPGQPPKLLIYWASTRESGVPDRFSGSGSGTDFTLTISSLQAEDVAVYYCQNDYSFPFTFGQGTKLEIKR
modifications: LD-72 linker-drug (Exatecan) on reduced interchain cysteines (Conjugation Method 1, DAR 8)
B3: 9D1-LD-37 (antibody, human IgG1, kappa, V domains shown)
VH: QIQLVQSGAEVKKPGASVKISCKASGYSFTDYHMNWVRQAPGKGLEWIGNIDPYYGSPTYNHKFKGRVTLTVDTSTSTAYMELSSLRSEDTAVYYCANYGRGNSFPYWGQGTLVTVSS
VL: DIVMTQSPSSLAVSLGERATINCKSSQSLLNSGNQRNYLTWYQQKPGQPPKLLIYWASTRESGVPDRFSGSGSGTDFTLTISSLQAEDVAVYYCQNDYSFPFTFGQGTKLEIKR
modifications: LD-37 linker-drug (Exatecan) on reduced interchain cysteines (Conjugation Method 1, DAR 8)
B4: 9D1-LD-89 (antibody, human IgG1, kappa, V domains shown)
VH: QIQLVQSGAEVKKPGASVKISCKASGYSFTDYHMNWVRQAPGKGLEWIGNIDPYYGSPTYNHKFKGRVTLTVDTSTSTAYMELSSLRSEDTAVYYCANYGRGNSFPYWGQGTLVTVSS
VL: DIVMTQSPSSLAVSLGERATINCKSSQSLLNSGNQRNYLTWYQQKPGQPPKLLIYWASTRESGVPDRFSGSGSGTDFTLTISSLQAEDVAVYYCQNDYSFPFTFGQGTKLEIKR
modifications: LD-89 linker-drug (Exatecan) on reduced interchain cysteines (Conjugation Method 1; DAR printed as 1 in Table 1)
B5: 9D1-LD-82 (antibody, human IgG1, kappa, V domains shown)
VH: QIQLVQSGAEVKKPGASVKISCKASGYSFTDYHMNWVRQAPGKGLEWIGNIDPYYGSPTYNHKFKGRVTLTVDTSTSTAYMELSSLRSEDTAVYYCANYGRGNSFPYWGQGTLVTVSS
VL: DIVMTQSPSSLAVSLGERATINCKSSQSLLNSGNQRNYLTWYQQKPGQPPKLLIYWASTRESGVPDRFSGSGSGTDFTLTISSLQAEDVAVYYCQNDYSFPFTFGQGTKLEIKR
modifications: LD-82 linker-drug (structure, preparation and DAR not described in the filing)
B6: 9D1-LD-73 (antibody, human IgG1, kappa, V domains shown)
VH: QIQLVQSGAEVKKPGASVKISCKASGYSFTDYHMNWVRQAPGKGLEWIGNIDPYYGSPTYNHKFKGRVTLTVDTSTSTAYMELSSLRSEDTAVYYCANYGRGNSFPYWGQGTLVTVSS
VL: DIVMTQSPSSLAVSLGERATINCKSSQSLLNSGNQRNYLTWYQQKPGQPPKLLIYWASTRESGVPDRFSGSGSGTDFTLTISSLQAEDVAVYYCQNDYSFPFTFGQGTKLEIKR
modifications: LD-73 linker-drug (Exatecan, PEG side chain) on reduced interchain cysteines (Conjugation Method 1, DAR 8)
B7: 9D1-LD-74 (antibody, human IgG1, kappa, V domains shown)
VH: QIQLVQSGAEVKKPGASVKISCKASGYSFTDYHMNWVRQAPGKGLEWIGNIDPYYGSPTYNHKFKGRVTLTVDTSTSTAYMELSSLRSEDTAVYYCANYGRGNSFPYWGQGTLVTVSS
VL: DIVMTQSPSSLAVSLGERATINCKSSQSLLNSGNQRNYLTWYQQKPGQPPKLLIYWASTRESGVPDRFSGSGSGTDFTLTISSLQAEDVAVYYCQNDYSFPFTFGQGTKLEIKR
modifications: LD-74 linker-drug (Exatecan, polysarcosine side chain) on reduced interchain cysteines (Conjugation Method 1, DAR 8)
B8: 9D1-LD-71 (antibody, human IgG1, kappa, V domains shown)
VH: QIQLVQSGAEVKKPGASVKISCKASGYSFTDYHMNWVRQAPGKGLEWIGNIDPYYGSPTYNHKFKGRVTLTVDTSTSTAYMELSSLRSEDTAVYYCANYGRGNSFPYWGQGTLVTVSS
VL: DIVMTQSPSSLAVSLGERATINCKSSQSLLNSGNQRNYLTWYQQKPGQPPKLLIYWASTRESGVPDRFSGSGSGTDFTLTISSLQAEDVAVYYCQNDYSFPFTFGQGTKLEIKR
modifications: LD-71 linker-drug (SN38) on reduced interchain cysteines (Conjugation Method 1, DAR 8)
B9: 9D1-LD-12 (antibody, human IgG1, kappa, V domains shown)
VH: QIQLVQSGAEVKKPGASVKISCKASGYSFTDYHMNWVRQAPGKGLEWIGNIDPYYGSPTYNHKFKGRVTLTVDTSTSTAYMELSSLRSEDTAVYYCANYGRGNSFPYWGQGTLVTVSS
VL: DIVMTQSPSSLAVSLGERATINCKSSQSLLNSGNQRNYLTWYQQKPGQPPKLLIYWASTRESGVPDRFSGSGSGTDFTLTISSLQAEDVAVYYCQNDYSFPFTFGQGTKLEIKR
modifications: LD-12 linker-drug (Exatecan) on reduced interchain cysteines (Conjugation Method 1, DAR 8)
B10: 9D1-LD-31-P2 (antibody, human IgG1, kappa, V domains shown)
VH: QIQLVQSGAEVKKPGASVKISCKASGYSFTDYHMNWVRQAPGKGLEWIGNIDPYYGSPTYNHKFKGRVTLTVDTSTSTAYMELSSLRSEDTAVYYCANYGRGNSFPYWGQGTLVTVSS
VL: DIVMTQSPSSLAVSLGERATINCKSSQSLLNSGNQRNYLTWYQQKPGQPPKLLIYWASTRESGVPDRFSGSGSGTDFTLTISSLQAEDVAVYYCQNDYSFPFTFGQGTKLEIKR
modifications: LD-31-P2 linker-drug (Exatecan) on reduced interchain cysteines (Conjugation Method 1, DAR 8)
B11: 9D1-LD-66 (antibody, human IgG1, kappa, V domains shown)
VH: QIQLVQSGAEVKKPGASVKISCKASGYSFTDYHMNWVRQAPGKGLEWIGNIDPYYGSPTYNHKFKGRVTLTVDTSTSTAYMELSSLRSEDTAVYYCANYGRGNSFPYWGQGTLVTVSS
VL: DIVMTQSPSSLAVSLGERATINCKSSQSLLNSGNQRNYLTWYQQKPGQPPKLLIYWASTRESGVPDRFSGSGSGTDFTLTISSLQAEDVAVYYCQNDYSFPFTFGQGTKLEIKR
modifications: LD-66 linker-drug (Exatecan) on reduced interchain cysteines (Conjugation Method 1, DAR 8)
B12: 9D1-LD-57 (antibody, human IgG1, kappa, V domains shown)
VH: QIQLVQSGAEVKKPGASVKISCKASGYSFTDYHMNWVRQAPGKGLEWIGNIDPYYGSPTYNHKFKGRVTLTVDTSTSTAYMELSSLRSEDTAVYYCANYGRGNSFPYWGQGTLVTVSS
VL: DIVMTQSPSSLAVSLGERATINCKSSQSLLNSGNQRNYLTWYQQKPGQPPKLLIYWASTRESGVPDRFSGSGSGTDFTLTISSLQAEDVAVYYCQNDYSFPFTFGQGTKLEIKR
modifications: LD-57 linker-drug (MMAE) on partially reduced interchain cysteines (Conjugation Method 2, DAR 4)
B13: 9D1-vc-PAB-MMAE (antibody, human IgG1, kappa, V domains shown)
VH: QIQLVQSGAEVKKPGASVKISCKASGYSFTDYHMNWVRQAPGKGLEWIGNIDPYYGSPTYNHKFKGRVTLTVDTSTSTAYMELSSLRSEDTAVYYCANYGRGNSFPYWGQGTLVTVSS
VL: DIVMTQSPSSLAVSLGERATINCKSSQSLLNSGNQRNYLTWYQQKPGQPPKLLIYWASTRESGVPDRFSGSGSGTDFTLTISSLQAEDVAVYYCQNDYSFPFTFGQGTKLEIKR
modifications: MC-VC-PAB-MMAE linker-drug on partially reduced interchain cysteines (Conjugation Method 2, DAR 4)
B14: 9D1-LD-88 (antibody, human IgG1, kappa, V domains shown)
VH: QIQLVQSGAEVKKPGASVKISCKASGYSFTDYHMNWVRQAPGKGLEWIGNIDPYYGSPTYNHKFKGRVTLTVDTSTSTAYMELSSLRSEDTAVYYCANYGRGNSFPYWGQGTLVTVSS
VL: DIVMTQSPSSLAVSLGERATINCKSSQSLLNSGNQRNYLTWYQQKPGQPPKLLIYWASTRESGVPDRFSGSGSGTDFTLTISSLQAEDVAVYYCQNDYSFPFTFGQGTKLEIKR
modifications: LD-88 linker-drug (Exatecan) on reduced interchain cysteines (Conjugation Method 1; DAR printed as 1 in Table 1)
B15: 9D1-LD-65 (antibody, human IgG1, kappa, V domains shown)
VH: QIQLVQSGAEVKKPGASVKISCKASGYSFTDYHMNWVRQAPGKGLEWIGNIDPYYGSPTYNHKFKGRVTLTVDTSTSTAYMELSSLRSEDTAVYYCANYGRGNSFPYWGQGTLVTVSS
VL: DIVMTQSPSSLAVSLGERATINCKSSQSLLNSGNQRNYLTWYQQKPGQPPKLLIYWASTRESGVPDRFSGSGSGTDFTLTISSLQAEDVAVYYCQNDYSFPFTFGQGTKLEIKR
modifications: LD-65 linker-drug (Exatecan) on reduced interchain cysteines (Conjugation Method 1, DAR 8)
B16: 9D1-ELC122 (antibody, human IgG1, kappa, V domains shown)
VH: QIQLVQSGAEVKKPGASVKISCKASGYSFTDYHMNWVRQAPGKGLEWIGNIDPYYGSPTYNHKFKGRVTLTVDTSTSTAYMELSSLRSEDTAVYYCANYGRGNSFPYWGQGTLVTVSS
VL: DIVMTQSPSSLAVSLGERATINCKSSQSLLNSGNQRNYLTWYQQKPGQPPKLLIYWASTRESGVPDRFSGSGSGTDFTLTISSLQAEDVAVYYCQNDYSFPFTFGQGTKLEIKR
modifications: ELC122 linker-drug (SN38) on reduced interchain cysteines (Conjugation Method 1, DAR 8)
B17: 9D1-LD-31-P1 (antibody, human IgG1, kappa, V domains shown)
VH: QIQLVQSGAEVKKPGASVKISCKASGYSFTDYHMNWVRQAPGKGLEWIGNIDPYYGSPTYNHKFKGRVTLTVDTSTSTAYMELSSLRSEDTAVYYCANYGRGNSFPYWGQGTLVTVSS
VL: DIVMTQSPSSLAVSLGERATINCKSSQSLLNSGNQRNYLTWYQQKPGQPPKLLIYWASTRESGVPDRFSGSGSGTDFTLTISSLQAEDVAVYYCQNDYSFPFTFGQGTKLEIKR
modifications: LD-31-P1 linker-drug (Exatecan) on reduced interchain cysteines (Conjugation Method 1, DAR 8)

Tests used:
Test in all cases: cell-based or functional assay
human Claudin18.2 [1] = target: T1, human Claudin18.2
human Claudin18.2 [2] = target: T1, human Claudin18.2; remark: listed apart in the source
human Claudin18.2 [3] = target: T1, human Claudin18.2; remark: listed apart in the source
human Claudin18.2 [4] = target: T1, human Claudin18.2; remark: listed apart in the source

Binder | IC50 of in vitro cell killing on MC38-hClaudin18.2 cells (AlamarBlue cell viability) (human Claudin18.2 [1]) [nM] | IC50 of in vitro cell killing on NUGC4-hClaudin18.2 cells (CCK-8 cell viability, 120 h) (human Claudin18.2 [2]) [nM] | IC50 of inhibition of proliferation of MC38-hClaudin18.2 cells (AlamarBlue cell viability, 72 h) (human Claudin18.2 [3]) [nM] | IC50 of in vitro cell killing on HEK293-hClaudin18.2 cells (AlamarBlue cell viability, 72 h) (human Claudin18.2 [4]) [nM]
B1 | 11 | 0.184 | – | –
B2 | 1.08 | 0.553 | – | –
B3 | 0.802 | – | – | –
B4 | – | – | 0.757 | –
B5 | – | – | 8.01 | –
B6 | 1.4 | 1.27 | – | –
B7 | 2.22 | 1.16 | – | –
B8 | – | – | – | 0.397
B9 | 0.799 | 0.58 | – | –
B10 | 2.91 | – | – | –
B11 | 1.09 | 0.996 | – | 0.996
B12 | 0.53 | 0.053 | – | –
B13 | 0.407 | 0.064 | – | –
B14 | – | – | 1.46 | –
B15 | 1.61 | 0.701 | – | 0.086
B16 | – | – | – | 0.628
B17 | 4.35 | – | – | –
